The supplement of paper PMC11908140

B1: library; numbered along this chain (parent)
chain: MRKPRAAVGSGHRKQAASQEGRQKHAKNNSQAKPSACDGLARQPEEVVLQASVSSYHLFRDVAEVTAFRGSLLSWYDQEKRDLPWRRRAEDEMDLDRRAYAVWVSEVMLQQTQVATVINYYTGWMQKWPTLQDLASASLEEVNQLWAGLGYYSRGRRLQEGARKVVEELGGHMPRTAETLQQLLPGVGRYTAGAIASIAFGQATGVVDGNVARVLCRVRAIGADPSSTLVSQQLWGLAQQLVDPARPGDFNQAAMELGATVCTPQRPLCSQCPVESLCRARQRVEQEQLLASGSLSGSPDVEECAPNTGQCHLCLPPSEPWDQTLGVVNFPRKASRKPPREESSATCVLEQPGALGAQILLVQRPNSGLLAGLWEFPSVTWEPSEQLQRKALLQELQRWAGPLPATHLRHLGEVVHTFSHIKLTYQVYGLALEGQTPVTTVPPGARWLTQEEFHTAAVSTAMKKVFRVYQGQQPGTCMGSKRSQVSSPCSRKKPRMGQQVLDNFFRSHISTDAHSLNSAAQ

Variants of: B1
Assay: 8OG:A repair function score (normalized; synonymous = 0, nonsense = -1) (normalized log-likelihood score); higher = more repair activity (WT-like)
Details: with 8OG:A DNA repair reporter (GFP) in HEK-293 MUTYH KO cells
In short: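 After 72 h, viable mCherry+ cells were split into GFP+ (repair) and GFP− bins in three replicates per tile. These cells were MUTYH knockout HEK-293 cells holding lentiviral MUTYH cDNA NNN codon-scan libraries, kept in 10 pg/ml doxycycline and co-transfected with mCherry plus an 8OG:A GFP repair reporter. Sequencing of tile amplicons gave per-tile Rosace fitness scores, normalized into a repair function score anchored on synonymous and nonsense distributions. Synonymous medians were fixed at 0, nonsense at -1, and variants under 300 counts per million at the start were removed.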
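Note: cells sorted at 72 h after reporter transfection.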

In order of falling “8OG:A repair function score” value:
1. MRKPRAAVGSGHRKQAASQEGRQKHAKNNSQAKPSACDGLARQPEEVVLQASVSSYHLFRDVAEVTAFRGSLLSWYDQEKRDLPWRRRAEDEMDLDRRAYAVWVSEVMLQQTQVATVINYYTGWMQKWPTLQDLASASLEEVNQLWAGLGYYSRGRRLQEGARKVVEELGGHMPRTAETLQQLLPGVGRYTAGAIASIAFGKATGVVDGNVARVLCRVRAIGADPSSTLVSQQLWGLAQQLVDPARPGDFNQAAMELGATVCTPQRPLCSQCPVESLCRARQRVEQEQLLASGSLSGSPDVEECAPNTGQCHLCLPPSEPWDQTLGVVNFPRKASRKPPREESSATCVLEQPGALGAQILLVQRPNSGLLAGLWEFPSVTWEPSEQLQRKALLQELQRWAGPLPATHLRHLGEVVHTFSHIKLTYQVYGLALEGQTPVTTVPPGARWLTQEEFHTAAVSTAMKKVFRVYQGQQPGTCMGSKRSQVSSPCSRKKPRMGQQVLDNFFRSHISTDAHSLNSAAQ [Q202K]  0.0342
2. MRKPRAAVGSGHRKQAASQEGRQKHAKNNSQAKPSACDGLARQPEEVVLQASVSSYHLFRDVAEVTAFRGSLLSWYDQEKRDLPWRRRAEDEMDLDRRAYAVWVSEVMLQQTQVATVINYYTGWMQKWPTLQDLASASLEEVNQLWAGLGYYSRGRRLQEGARKVVEELGGHMPRTAETLQQLLPGVGRYTAGAIASIAFGRATGVVDGNVARVLCRVRAIGADPSSTLVSQQLWGLAQQLVDPARPGDFNQAAMELGATVCTPQRPLCSQCPVESLCRARQRVEQEQLLASGSLSGSPDVEECAPNTGQCHLCLPPSEPWDQTLGVVNFPRKASRKPPREESSATCVLEQPGALGAQILLVQRPNSGLLAGLWEFPSVTWEPSEQLQRKALLQELQRWAGPLPATHLRHLGEVVHTFSHIKLTYQVYGLALEGQTPVTTVPPGARWLTQEEFHTAAVSTAMKKVFRVYQGQQPGTCMGSKRSQVSSPCSRKKPRMGQQVLDNFFRSHISTDAHSLNSAAQ [Q202R]  -0.0857
3. MRKPRAAVGSGHRKQAASQEGRQKHAKNNSQAKPSACDGLARQPEEVVLQASVSSYHLFRDVAEVTAFRGSLLSWYDQEKRDLPWRRRAEDEMDLDRRAYAVWVSEVMLQQTQVATVINYYTGWMQKWPTLQDLASASLEEVNQLWAGLGYYSRGRRLQEGARKVVEELGGHMPRTAETLQQLLPGVGRYTAGAIASIAFGLATGVVDGNVARVLCRVRAIGADPSSTLVSQQLWGLAQQLVDPARPGDFNQAAMELGATVCTPQRPLCSQCPVESLCRARQRVEQEQLLASGSLSGSPDVEECAPNTGQCHLCLPPSEPWDQTLGVVNFPRKASRKPPREESSATCVLEQPGALGAQILLVQRPNSGLLAGLWEFPSVTWEPSEQLQRKALLQELQRWAGPLPATHLRHLGEVVHTFSHIKLTYQVYGLALEGQTPVTTVPPGARWLTQEEFHTAAVSTAMKKVFRVYQGQQPGTCMGSKRSQVSSPCSRKKPRMGQQVLDNFFRSHISTDAHSLNSAAQ [Q202L]  -0.163
4. MRKPRAAVGSGHRKQAASQEGRQKHAKNNSQAKPSACDGLARQPEEVVLQASVSSYHLFRDVAEVTAFRGSLLSWYDQEKRDLPWRRRAEDEMDLDRRAYAVWVSEVMLQQTQVATVINYYTGWMQKWPTLQDLASASLEEVNQLWAGLGYYSRGRRLQEGARKVVEELGGHMPRTAETLQQLLPGVGRYTAGAIASIAFGMATGVVDGNVARVLCRVRAIGADPSSTLVSQQLWGLAQQLVDPARPGDFNQAAMELGATVCTPQRPLCSQCPVESLCRARQRVEQEQLLASGSLSGSPDVEECAPNTGQCHLCLPPSEPWDQTLGVVNFPRKASRKPPREESSATCVLEQPGALGAQILLVQRPNSGLLAGLWEFPSVTWEPSEQLQRKALLQELQRWAGPLPATHLRHLGEVVHTFSHIKLTYQVYGLALEGQTPVTTVPPGARWLTQEEFHTAAVSTAMKKVFRVYQGQQPGTCMGSKRSQVSSPCSRKKPRMGQQVLDNFFRSHISTDAHSLNSAAQ [Q202M]  -0.234
5. MRKPRAAVGSGHRKQAASQEGRQKHAKNNSQAKPSACDGLARQPEEVVLQASVSSYHLFRDVAEVTAFRGSLLSWYDQEKRDLPWRRRAEDEMDLDRRAYAVWVSEVMLQQTQVATVINYYTGWMQKWPTLQDLASASLEEVNQLWAGLGYYSRGRRLQEGARKVVEELGGHMPRTAETLQQLLPGVGRYTAGAIASIAFGNATGVVDGNVARVLCRVRAIGADPSSTLVSQQLWGLAQQLVDPARPGDFNQAAMELGATVCTPQRPLCSQCPVESLCRARQRVEQEQLLASGSLSGSPDVEECAPNTGQCHLCLPPSEPWDQTLGVVNFPRKASRKPPREESSATCVLEQPGALGAQILLVQRPNSGLLAGLWEFPSVTWEPSEQLQRKALLQELQRWAGPLPATHLRHLGEVVHTFSHIKLTYQVYGLALEGQTPVTTVPPGARWLTQEEFHTAAVSTAMKKVFRVYQGQQPGTCMGSKRSQVSSPCSRKKPRMGQQVLDNFFRSHISTDAHSLNSAAQ [Q202N]  -0.274
6. MRKPRAAVGSGHRKQAASQEGRQKHAKNNSQAKPSACDGLARQPEEVVLQASVSSYHLFRDVAEVTAFRGSLLSWYDQEKRDLPWRRRAEDEMDLDRRAYAVWVSEVMLQQTQVATVINYYTGWMQKWPTLQDLASASLEEVNQLWAGLGYYSRGRRLQEGARKVVEELGGHMPRTAETLQQLLPGVGRYTAGAIASIAFGPATGVVDGNVARVLCRVRAIGADPSSTLVSQQLWGLAQQLVDPARPGDFNQAAMELGATVCTPQRPLCSQCPVESLCRARQRVEQEQLLASGSLSGSPDVEECAPNTGQCHLCLPPSEPWDQTLGVVNFPRKASRKPPREESSATCVLEQPGALGAQILLVQRPNSGLLAGLWEFPSVTWEPSEQLQRKALLQELQRWAGPLPATHLRHLGEVVHTFSHIKLTYQVYGLALEGQTPVTTVPPGARWLTQEEFHTAAVSTAMKKVFRVYQGQQPGTCMGSKRSQVSSPCSRKKPRMGQQVLDNFFRSHISTDAHSLNSAAQ [Q202P]  -0.931
